The numbers were not newly measured in publication PMC3877210, which cites them from elsewhere.

For orientation: Kd means a measure of binding affinity in units of concentration.

In data set [1] the target is integrin β1 cytoplasmic tail (Homo sapiens) (UniProt P05556). Put plainly: pulldown.
The target of data set [2] is integrin β2 cytoplasmic tail (Homo sapiens) (UniProt P05107). Put plainly: SPR. (In SPR one partner is held on a chip, and binding of the other changes the refractive index at the surface.)
For data set [3], the target named is integrin β3 cytoplasmic tail (Homo sapiens) (UniProt P05106). Put plainly: SPR.
Data set [4] shares this target. The data set can be described thus: NMR.

Sequence of UniProt P05106 (P05106 742-788): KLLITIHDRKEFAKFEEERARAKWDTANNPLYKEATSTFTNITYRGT
Sequence of UniProt P05107 (P05107 724-769): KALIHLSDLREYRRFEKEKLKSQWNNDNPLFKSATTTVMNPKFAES
Sequence of UniProt P05556 (P05556 752-798): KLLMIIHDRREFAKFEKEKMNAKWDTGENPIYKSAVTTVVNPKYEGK

Consider talin F2-F3 F2-F3 (from UniProt Q9Y490), for which the Kd in data set [1] is 67 nM; in data set [2], 12.5 nM; in data set [3] it was 91 nM.

For the substance talin F3 F3 (from UniProt Q9Y490), in data set [4], the Kd was 273000 nM.
